T1: human CEACAM5 on cells (human, UniProt P06731 35-685)
T1 sequence: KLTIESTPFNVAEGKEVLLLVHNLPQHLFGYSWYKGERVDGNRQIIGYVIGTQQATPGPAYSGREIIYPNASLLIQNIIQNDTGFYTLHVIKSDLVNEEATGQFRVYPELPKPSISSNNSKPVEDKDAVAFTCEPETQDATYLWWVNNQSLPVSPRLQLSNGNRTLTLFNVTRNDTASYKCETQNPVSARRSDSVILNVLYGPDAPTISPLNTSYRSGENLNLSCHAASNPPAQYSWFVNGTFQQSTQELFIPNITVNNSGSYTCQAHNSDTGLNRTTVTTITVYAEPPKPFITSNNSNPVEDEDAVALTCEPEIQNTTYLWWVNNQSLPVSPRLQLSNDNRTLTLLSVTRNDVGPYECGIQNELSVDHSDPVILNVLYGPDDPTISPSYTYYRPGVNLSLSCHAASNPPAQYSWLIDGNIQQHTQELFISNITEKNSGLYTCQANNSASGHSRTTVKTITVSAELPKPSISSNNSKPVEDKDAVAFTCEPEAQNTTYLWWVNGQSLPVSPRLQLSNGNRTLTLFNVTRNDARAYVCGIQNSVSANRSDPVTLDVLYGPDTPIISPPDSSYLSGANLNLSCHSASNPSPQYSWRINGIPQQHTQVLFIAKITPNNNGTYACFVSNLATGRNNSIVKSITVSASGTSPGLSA

T2: soluble mouse Fc-human NKG2D dimer (human, UniProt P26718 78-216, limits assumed)
T2 construct: also called NKG2D-mFc; human NKG2D fused to a mouse Fc
T2 sequence (looked up): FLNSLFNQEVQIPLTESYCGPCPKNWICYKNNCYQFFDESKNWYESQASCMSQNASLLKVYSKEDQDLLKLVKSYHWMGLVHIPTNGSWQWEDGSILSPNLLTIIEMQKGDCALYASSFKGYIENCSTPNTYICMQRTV

T3: Cyno NKG2D-mFc (cynomolgus monkey, UniProt P61252 78-216, limits assumed)
T3 construct: also called cynomolgus NKG2D fused to a mouse Fc
T3 sequence (looked up): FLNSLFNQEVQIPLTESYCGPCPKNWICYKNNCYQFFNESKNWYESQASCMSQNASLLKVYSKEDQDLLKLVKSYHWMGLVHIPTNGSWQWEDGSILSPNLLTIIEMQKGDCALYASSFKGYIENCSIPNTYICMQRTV

T4: hCEACAM5 A2-B2 domain (human, UniProt P06731 323-500, limits assumed)
T4 sequence: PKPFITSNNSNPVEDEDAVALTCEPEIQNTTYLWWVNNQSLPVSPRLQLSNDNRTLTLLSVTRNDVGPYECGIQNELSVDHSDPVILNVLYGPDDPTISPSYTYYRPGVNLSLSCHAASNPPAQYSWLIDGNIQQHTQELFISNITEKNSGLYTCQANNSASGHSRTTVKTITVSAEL

T5: hCEACAM5 A3-B3 domain (human, UniProt P06731 501-685, limits assumed)
T5 sequence: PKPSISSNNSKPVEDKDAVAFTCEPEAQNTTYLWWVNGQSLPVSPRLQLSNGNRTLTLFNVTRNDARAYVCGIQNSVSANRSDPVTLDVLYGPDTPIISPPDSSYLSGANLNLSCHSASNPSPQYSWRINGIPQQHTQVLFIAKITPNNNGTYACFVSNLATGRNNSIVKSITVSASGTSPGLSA


Tests used:
[1] = biological target: T1, human CEACAM5 on cells; assay: cell-based or functional assay
[2] = biological target: T2, soluble mouse Fc-human NKG2D dimer; assay: SPR, NKG2D-mFc captured, 37C, pH 7.4
Experimental: (§1) Binding to NKG2D was assessed by SPR using a mouse Fc capture kit (Cytiva, #BR100838) immobilized onto a CM5 chip. Human and cynomolgus NKG2D fused to a mouse Fc were captured and AB0411, AB0466, or AB0621 was titrated from 600 nM.

[3] = biological target: T3, Cyno NKG2D-mFc; assay: SPR, NKG2D-mFc captured, 37C, pH 7.4
Experimental: as §1

[4] = biological target: T4, hCEACAM5 A2-B2 domain; assay: SPR with hCEACAM5 domains
Experimental: (§2) If the protein domain was an Fc fusion, AB0411, AB0466, AB0264, or AB0621 were captured using an anti-human Fab antibody (Cytiva, #28958325) immobilized onto a CM5 chip. The various hCEACAM5 protein domains (N-term, A1-B1, A2, B2, A3, or B3) were titrated over the captured TriNKETs at 50 μL/min for 180 sec of association and 300 sec of dissociation. The assay was run at 25° C. in HBS-EP+ running buffer, pH 7.4. The surface of the CM5 chip was regenerated using […] glycine pH 2.1.
(§3) The various hCEACAM5 protein domains were titrated over the captured antibody at 50 μL/min for 180 sec of association and 300 sec of dissociation. The assay was run at 37° C. in HBS-EP+ running buffer, pH 7.4. The surface of the CM5 chip was regenerated using 3M MgCl₂.

[5] = biological target: T5, hCEACAM5 A3-B3 domain; assay: SPR with hCEACAM5 domains
Experimental: as §2, §3

[6] = biological target: T1, human CEACAM5 on cells; assay: flow cytometry, MKN-45 cells
Experimental: MKN-45 and HPAF-II human cancer cell lines were diluted into FACS buffer and 100,000 cells of each cell type were seeded per well in duplicate into 96-well plates for FACS staining. The cells were washed with PBS, incubated in a 1:2000 dilution of live/dead dye in PBS for 15 minutes, and then washed with FACS buffer. AB0264, AB0411, AB0466, and AB0621 were diluted into FACS buffer, and 50 μl of each diluted TriNKET was added to the cells. After incubation on ice for 30-120 minutes, the cells were washed with FACS buffer. Anti-human IgG-Fc secondary antibody was diluted into FACS buffer, and 50 μl was added per well for detection of the bound TriNKETs. The cells were incubated for 30-60 minutes on ice and then washed with FACS buffer. 50 μl of fixation buffer was added to each well and the cells were incubated for 10 minutes at room temperature. The cells were washed with FACS buffer and resuspended in FACS buffer for analysis with ThermoFisher Attune NxT, BD FACS Celesta SN #H66034400085, or BD FACS Celesta SN #H66034400160.

| EC50 (nM), NK lysis of HPAF-II (DELFIA) [1] | EC50 (nM), NK lysis of LS-174T (DELFIA) [1] | EC50 (nM), NK lysis of SK-CO-1 (DELFIA) [1] | EC50 (nM), NK lysis of ZR-75-30 (DELFIA) [1] | Kd [2] | koff [2] | kon [2] | Kd [3] | koff [3] | kon [3] | binding result [4] | binding result [5] | EC50 [6] | Max FOB [6] | Binder | Max Killing (%), HPAF-II [1] | Max Killing (%), LS-174T [1] | Max Killing (%), SK-CO-1 [1] | Max Killing (%), ZR-75-30 [1] |
| --- | --- | --- | --- | --- | --- | --- | --- | --- | --- | --- | --- | --- | --- | --- | --- | --- | --- | --- |
| 0.23 nM | 0.46 nM | 9.07 nM | 0.8 nM | 680 nM | 0.16 s⁻¹ | 240000 M⁻¹ s⁻¹ | 750 nM | 0.18 s⁻¹ | 230000 M⁻¹ s⁻¹ | no binding | no binding | 15.2 nM | 111 fold over background | AB0466 F3' CEACAM5 TriNKET (bispecific antibody, human IgG1, kappa) not shown heavy: EVQLVESGGGLVKPGGSLRLSCAASGFTFSSYSMNWVRQAPGKGLEWVSSISSSSSYIYYADSVKGRFTISRDNAKNSLYLQMNSLRAEDTAVYYCARGAPIGAAAGWFDPWGQGTLVTVSSASTKGPSVFPLAPSSKSTSGGTAALGCLVKDYFPEPVTVSWNSGALTSGVHTFPAVLQSSGLYSLSSVVTVPSSSLGTQTYICNVNHKPSNTKVDKKVEPKSCDKTHTCPPCPAPELLGGPSVFLFPPKPKDTLMISRTPEVTCVVVDVSHEDPEVKFNWYVDGVEVHNAKTKPREEQYNSTYRVVSVLTVLHQDWLNGKEYKCKVSNKALPAPIEKTISKAKGQPREPQVCTLPPSRDELTENQVSLTCLVKGFYPSDIAVEWESNGQPENNYKTTPPVLDSDGSFFLYSWLTVDKSRWQQGNVFSCSVMHEALHNHYTQKSLSLSPG light: DIQMTQSPSSVSASVGDRVTITCRASQGISSWLAWYQQKPGKAPKLLIYAASSLQSGVPSRFSGSGSGTDFTLTISSLQPEDFATYYCQQGVSFPRTFGGGTKVEIKRTVAAPSVFIFPPSDEQLKSGTASVVCLLNNFYPREAKVQWKVDNALQSGNSQESVTEQDSKDSTYSLSSTLTLSKADYEKHKVYACEVTHQGLSSPVTKSFNRGEC | 16.5% | 20.5% | 75.1% | 21.4% |
|  |  |  |  |  |  |  |  |  |  | no binding | no binding | 24.6 nM | 55 fold over background | AB0264 F3' CEACAM5 TriNKET (bispecific antibody, human IgG1, kappa) DIVMTQSPDSLAVSLGERATINCKSSHSLLYGNFQNNYLAWYQQKPGQPPKLLIYWASTRESGVPDRFSGSGSGTDFTLTISSLQAEDVAVYYCQQYYSYPYTFGCGTKLEIKGGGGSGGGGSGGGGSGGGGSQVQLVQSGAEVKKPGASVKVSCKASGYTFTAYTIHWVRQAPGQCLEWMGYINPSSGYTEYNQKFKDRTTLTADTSIPTAYMELSRLRSDDTAVYYCTREGGLLWFDYWGQGTLVTVSSGSDKTHTCPPCPAPELLGGPSVFLFPPKPKDTLMISRTPEVTCVVVDVSHEDPEVKFNWYVDGVEVHNAKTKPREEQYNSTYRVVSVLTVLHQDWLNGKEYKCKVSNKALPAPIEKTISKAKGQPREPRVYTLPPCRDELTKNQVSLTCLVKGFYPSDIAVEWESNGQPENNYKTTPPVLVSDGSFTLYSKLTVDKSRWQQGNVFSCSVMHEALHNHYTQKSLSLSPG heavy: EVQLVESGGGLVKPGGSLRLSCAASGFTFSSYSMNWVRQAPGKGLEWVSSISSSSSYIYYADSVKGRFTISRDNAKNSLYLQMNSLRAEDTAVYYCARGAPIGAAAGWFDPWGQGTLVTVSSASTKGPSVFPLAPSSKSTSGGTAALGCLVKDYFPEPVTVSWNSGALTSGVHTFPAVLQSSGLYSLSSVVTVPSSSLGTQTYICNVNHKPSNTKVDKKVEPKSCDKTHTCPPCPAPELLGGPSVFLFPPKPKDTLMISRTPEVTCVVVDVSHEDPEVKFNWYVDGVEVHNAKTKPREEQYNSTYRVVSVLTVLHQDWLNGKEYKCKVSNKALPAPIEKTISKAKGQPREPQVCTLPPSRDELTENQVSLTCLVKGFYPSDIAVEWESNGQPENNYKTTPPVLDSDGSFFLYSWLTVDKSRWQQGNVFSCSVMHEALHNHYTQKSLSLSPG light: DIQMTQSPSSVSASVGDRVTITCRASQGISSWLAWYQQKPGKAPKLLIYAASSLQSGVPSRFSGSGSGTDFTLTISSLQPEDFATYYCQQGVSFPRTFGGGTKVEIKRTVAAPSVFIFPPSDEQLKSGTASVVCLLNNFYPREAKVQWKVDNALQSGNSQESVTEQDSKDSTYSLSSTLTLSKADYEKHKVYACEVTHQGLSSPVTKSFNRGEC |  |  |  |  |

Source: US20240124607A1 (Merck Sharp & Dohme, published 2024)
